Test results: article PMC11266248, “Production, purification, and quality assessment of borrelial proteins CspZ from Borrelia burgdorferi and FhbA from Borrelia hermsii” (Applied Microbiology and Biotechnology, 2024)

Target: T1, purified human complement factor H from human plasma/serum (human, UniProt P08603 19-1231)
T1 construct: human complement factor H, serum glycoprotein of 20 SCR domains (NCBI gene number 3075); also called FH; Human purified FH; source: bought: Sigma/Merck C5813 (batch SLCP3577), purified from human plasma; provided by Prof; Clark
Test: SPR; Biacore T100, CM5 chip; FH (750 RU), rFHL-1 or rFH15-20 (200 RU) amine-coupled as ligands; CspZ or FhbA as analytes; PBS with 0.05% Tween20, 25 °C, 30 µl/min; single-cycle and multiple-cycle kinetics, Langmuir 1:1 model; in duplicate
Settings: both partners purified

T1 sequence (P08603 19-1231): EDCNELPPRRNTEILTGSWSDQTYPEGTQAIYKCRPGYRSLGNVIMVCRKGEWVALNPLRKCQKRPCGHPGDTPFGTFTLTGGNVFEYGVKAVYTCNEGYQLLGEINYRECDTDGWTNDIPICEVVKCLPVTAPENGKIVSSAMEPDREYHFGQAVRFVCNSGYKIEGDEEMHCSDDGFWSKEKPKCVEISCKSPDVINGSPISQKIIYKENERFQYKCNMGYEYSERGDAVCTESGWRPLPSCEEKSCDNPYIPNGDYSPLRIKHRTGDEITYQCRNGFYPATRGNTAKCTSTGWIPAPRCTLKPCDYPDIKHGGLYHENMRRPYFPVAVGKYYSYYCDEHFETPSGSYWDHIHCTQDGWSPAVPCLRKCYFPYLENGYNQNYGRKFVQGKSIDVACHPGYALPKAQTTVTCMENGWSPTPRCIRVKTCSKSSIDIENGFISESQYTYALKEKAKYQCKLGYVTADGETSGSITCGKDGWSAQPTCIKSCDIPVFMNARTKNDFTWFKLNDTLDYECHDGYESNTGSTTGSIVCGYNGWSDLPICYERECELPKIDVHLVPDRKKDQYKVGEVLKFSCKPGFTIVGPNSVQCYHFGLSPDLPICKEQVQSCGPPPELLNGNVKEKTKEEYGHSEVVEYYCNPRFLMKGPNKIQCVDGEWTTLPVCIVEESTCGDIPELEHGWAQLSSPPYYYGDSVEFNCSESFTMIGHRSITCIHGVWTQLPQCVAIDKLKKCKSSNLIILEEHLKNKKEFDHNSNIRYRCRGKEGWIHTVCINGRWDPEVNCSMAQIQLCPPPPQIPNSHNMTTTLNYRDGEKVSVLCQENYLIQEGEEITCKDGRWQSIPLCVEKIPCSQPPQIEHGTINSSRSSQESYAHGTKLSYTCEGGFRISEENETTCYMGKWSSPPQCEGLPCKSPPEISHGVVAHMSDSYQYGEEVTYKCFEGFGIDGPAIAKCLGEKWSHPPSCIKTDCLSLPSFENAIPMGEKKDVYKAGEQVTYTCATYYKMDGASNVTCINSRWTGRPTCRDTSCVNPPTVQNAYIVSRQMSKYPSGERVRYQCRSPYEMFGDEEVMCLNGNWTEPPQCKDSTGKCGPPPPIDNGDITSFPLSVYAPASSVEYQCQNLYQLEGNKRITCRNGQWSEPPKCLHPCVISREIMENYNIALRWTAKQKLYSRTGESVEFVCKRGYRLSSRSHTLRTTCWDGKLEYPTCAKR

B1: CspZ from Borrelia burgdorferi sensu stricto (complement regulator-acquiring surface protein 2) (natural protein)
chain: DVSRLNQRNINELKIFVEKAKYYSIKLDAIYNECTGAYNDIMTYSEGTFSDQSKVNQAISIFKKDNKIVNKFKELEKIIEEYKPMFLSKLIDDFAIELDQAVDNDVSNARHVADSYKKLRKSVVLAYIESFDVISSKFVDSKFVEASKKFVNKAKEFVEENDLIALECIVKTIGDMVNDREINSRSRYNNFYKKEADFLGAAVELEGAYKAIKQTLL
notes: CspZ (BbCRASP-2/BBH06), surface lipoprotein of Borrelia burgdorferi sensu stricto (NCBI txid139), encoded by cspZ on lp28-3; theoretical mass of the tagged protein 27.5 kDa, measured mass fits the predicted value without the N-terminal methionine; Two plasmids coding for N-terminally His6-tagged CspZ are named (pET-45(+) from Prof. Marconi, pETM-11 from Dr. Brangulis); also called BbCRASP-2; …
Kd: 0.209 ± 0.141 nM
koff: 5.31e-05 s⁻¹
kon: 255000 M⁻¹ s⁻¹
